The target in the test is T1, Trm7-A26P-PT (S. cerevisiae, UniProt P38238 1-310, A26P).
T1 sequence (looked up): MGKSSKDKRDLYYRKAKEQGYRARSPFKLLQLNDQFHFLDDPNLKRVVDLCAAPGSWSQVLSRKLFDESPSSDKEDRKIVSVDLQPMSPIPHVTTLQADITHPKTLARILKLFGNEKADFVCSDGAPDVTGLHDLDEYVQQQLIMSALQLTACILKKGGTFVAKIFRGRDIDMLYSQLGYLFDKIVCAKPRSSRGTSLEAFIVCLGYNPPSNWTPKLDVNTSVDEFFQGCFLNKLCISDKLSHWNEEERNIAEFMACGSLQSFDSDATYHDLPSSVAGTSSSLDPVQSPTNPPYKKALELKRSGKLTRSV
Briefly: pull-down.

B1: Trm734-9myc (natural protein, S. cerevisiae, UniProt Q08924 1-1013, looked up)
chain: MKDLSHYGPALCVKFYNDYVLAGYGPFIHVYDYHSATLINKCRLFHYNKVHGLSLSSEGKILAYGARSVTIVELEDVLKKESLVDFERINSDWITGATFSFDNLQIYLLTCYNKVLICDLNCEVLFRKSLGGERSILYSGIIKVFGPDKVYVNAGTVMGGVIIWDLFSETKIHNLLGHEGSIFYVNLSNNGRYVASCSDDRSIRLWDLETGKQLSVGWSHTARIWNLMFFDNDSKLISVSEDCTCRVWNIIESRENVAELSISNVYEVHLIKSIWGVDVKDDEMIAVTSGNDGRLKLIDLLQLKRHGDEETSFSLDDIAKQCGDIFEKNESIKGFQWFSFGVIAITSLGKILKYSDVTKQWKLLLTNEKFNSYPITNGIQTQNIAVFSNNKSDILLIKFSKDSADIIETEEFHLDELSKTNNCLVTEYDDDSFLLTLQSPNPREKFVCLEISLQNLKIKSKHCFNKPENFSSSCLTSFRNHILVGSRFSTLVIYNLLDESEEPFIIRRLSPGDTTTSIEFVEDKDNSAVFSVTNRDGYYVFIELTKNSLEEGPYRLSYKVLHSNKMMKGFLEGAFFNSKGEYITYGFKSSLFYLYNETNCYELASEVCGGSHRLWNLAKITDGHVLMYIKASRFHLRKIYNSIVPETLENGVHGREIRDISICPVSNTNTNDNFKDGHIFCTASEDTTIKLGYFNNRTGKVQNFWTQRKHVSGLQRCQFINHKLMISSSAREELFLWELNDKYNKRPYMTIRQALPVSTNNSDLRIMDFDVKFISQSGDFLLVTVYSDSTIKIWHYRENQNKFDLIMQGRYKTCCLFNVVFIALKEELLVVISPTDGHLVVYNITEYVPFSVDPISGDLVDHKLDATISNLPAPVAQLPVHQSGVKSLDYVANATRTSATILTGGDDNGLGLSNLKLDDSNKVTLKTSDFIAAAASSTITSGMLINGGKEVITTSVDQVIRAWEITAGKLSLVDKKRTTVADTGSLEIISNDEDADSEKTLLIGGVGLSIWKK
With B1, the “fold of Trm734-9myc pulled down against Trm7-MORF from a CEN plasmid” value was roughly 10 fold.

The values above are taken from PMC4643400 (Human mutation, 2015).
